# According to the supplement of paper PMC10724198:
# ± gives the standard deviation of the averaged measurements.
# Tested on: Saccharomyces cerevisiae
# Experiment: protein stability index of tFT-peptide fusion (C-terminal peptide) (PSI (0-1 scale)); higher = more stable (slower turnover)
# Conditions: genetic background: wild type; temperature: 30 C
# Procedure: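 Multiplexed protein stability (MPS) profiling in S. cerevisiae. Random 12-aa peptides (tFT-X12 library) are fused to the C-terminus of a sfGFP-mCherry tandem fluorescent timer, after mCherry and a GGGS linker. Cells are FACS-sorted into 8 mCherry/sfGFP bins and deep-sequenced. The protein stability index (PSI) is the read-weighted bin average, scaled from 0 (unstable) to 1 (stable). Only peptides with >10 reads are reported; cells were grown at 30 °C in SC-His with glucose.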
# 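Further: PSI is a weighted mean of sequencing reads over stability bins, variants kept only with over 10 reads, mCherry proximal and sfGFP distal, peptide attached via GGGS linker.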
sequence,measurement,value
RLLYGIYDHGRQ,protein stability index,0.731 ± 0.091
IKSKCIQSKETT,protein stability index,0.6037 ± 0.005
SRPPRSPPLPPV,protein stability index,0.686 ± 0.046
ERLRLVPRKGLL,protein stability index,0.714 ± 0.048
LSVLHATFGRCD,protein stability index,0.645 ± 0.017
SALNKPLTTESG,protein stability index,0.6586 ± 0.0021
SRKIAPNGTATL,protein stability index,0.706 ± 0.012
NRSFIITRSVLS,protein stability index,0.683 ± 0.029
SPSPLSLRLPPP,protein stability index,0.632 ± 0.028
CGLRGAGVLCWG,protein stability index,0.483 ± 0.051
VFVCFMSHLRGS,protein stability index,0.58 ± 0.012
PPPRPHTPPQLA,protein stability index,0.708 ± 0.019
SVHPVNRDPSRH,protein stability index,0.6904 ± 0.0014
GFTQLQNERVDG,protein stability index,0.785 ± 0.1
ARFFPLPIPPRS,protein stability index,0.758 ± 0.078
RPPSLCSYSICV,protein stability index,0.585 ± 0.0092
IESKANPRRIEV,protein stability index,0.696 ± 0.027
MRWVISEDPGFR,protein stability index,0.695 ± 0.018
SVSGPAPPSMSS,protein stability index,0.618 ± 0.12
LKLTFPFWNTGT,protein stability index,0.728 ± 0.034
PSHQRVRGLPSL,protein stability index,0.697 ± 0.041
KICHTKKKNKKK,protein stability index,0.769 ± 0.046
APLPHAASSLPA,protein stability index,0.6982 ± 0.0046
RGFPALLPAPAC,protein stability index,0.753 ± 0.12
ELSRLLPASFSL,protein stability index,0.696 ± 0.032
VGYGTGGAVGVE,protein stability index,0.691 ± 0.041
TPTRRIIPHTHP,protein stability index,0.685 ± 0.086
DCVRMLREGAGW,protein stability index,0.721 ± 0.079
PLRRSTSPLILL,protein stability index,0.648 ± 0.033
FRDVRFSSRVPF,protein stability index,0.786 ± 0.07
PPPPPAPPALPP,protein stability index,0.6734 ± 0.001
CPLPGSRHLAPV,protein stability index,0.742 ± 0.068
LRKVIGVSFCLA,protein stability index,0.542 ± 0.049
ELRLYFPRLFQF,protein stability index,0.496 ± 0.0078
TARRGAARSSQL,protein stability index,0.695 ± 0.017
LHPPPPPPALTP,protein stability index,0.729 ± 0.068
CFRTVPPPALTR,protein stability index,0.7199 ± 0.002
CGVHESAIQPNL,protein stability index,0.605 ± 0.0081
RTSGRIASLPGP,protein stability index,0.617 ± 0.031
FAFWGGHSWLSC,protein stability index,0.791 ± 0.035
DGGVGGGAPRVR,protein stability index,0.78 ± 0.14
YCGCLGYATGRV,protein stability index,0.671 ± 0.017
SPYVGVALGGVW,protein stability index,0.704 ± 0.012
PLLPFRYTRSGT,protein stability index,0.68 ± 0.07
APTVPQILVRHA,protein stability index,0.6736 ± 0.0047
VALHRIPVTVSR,protein stability index,0.578 ± 0.026
YRTCLHRGRQML,protein stability index,0.68188 ± 0.00019
RACRISSIRVGI,protein stability index,0.651 ± 0.014
WFCDNHRSFGWG,protein stability index,0.747 ± 0.07
VTFFAFPLFFGF,protein stability index,0.602 ± 0.041
PVFPSFGVSEFV,protein stability index,0.753 ± 0.059
HPLPTPSPHLSP,protein stability index,0.728 ± 0.016
TRLGWSWGFAHR,protein stability index,0.719 ± 0.11
PPRCHPPPPFPP,protein stability index,0.6466 ± 0.0047
ASCGTAGPCVPF,protein stability index,0.708 ± 0.019
YQAVRGRVFVAL,protein stability index,0.638 ± 0.044
IGMICYGKDTQY,protein stability index,0.726 ± 0.0073
GGGGGRSSPGGS,protein stability index,0.678 ± 0.073
GMIGLAEVGIKC,protein stability index,0.573 ± 0.0067
PPPPLPPRPPPP,protein stability index,0.704 ± 0.026
PARPPPPRPPPP,protein stability index,0.712 ± 0.03
FCFLAFLKTPKS,protein stability index,0.58 ± 0.038
PPHPSTPIPPPR,protein stability index,0.672 ± 0.012
TKYIGDGCVCSC,protein stability index,0.645 ± 0.018
PPRPRSARLFLR,protein stability index,0.728 ± 0.05
VLGIVEKRGILR,protein stability index,0.773 ± 0.11
DPARNDTTTETI,protein stability index,0.666 ± 0.027
AQHTGFMRELRR,protein stability index,0.7278 ± 0.0016
RGGGGGGIGFPR,protein stability index,0.681 ± 0.066
DEGFSRSGLLLK,protein stability index,0.6921 ± 0.003
GFVVGVGIVSWG,protein stability index,0.6108 ± 0.0029
ASPRLTGCPNPR,protein stability index,0.6863 ± 0.002
RDGLVPFCVVII,protein stability index,0.615 ± 0.048
VHENVGSGYNLE,protein stability index,0.734 ± 0.14
ILFLRFLHSVFS,protein stability index,0.5364 ± 0.0038
KRNSLSLIPQII,protein stability index,0.655 ± 0.071
DNHGWKVEGRLL,protein stability index,0.686 ± 0.015
CRKPRPLSFPLV,protein stability index,0.701 ± 0.043
LTRPHPPPVRTP,protein stability index,0.711 ± 0.083
VLSSPPVPAPRP,protein stability index,0.701 ± 0.051
STLVIPFPPFHF,protein stability index,0.7 ± 0.018
EEECSTPWGIRG,protein stability index,0.635 ± 0.048
KTKKKNKKDQKM,protein stability index,0.6661 ± 0.0047
RRAPTTATPARP,protein stability index,0.826 ± 0.14
YAVGWLLGGLWD,protein stability index,0.765 ± 0.053
ASFRPDGYTYSV,protein stability index,0.622 ± 0.071
TNANKKNGRGNT,protein stability index,0.683 ± 0.041
SPTLSPPPPLAL,protein stability index,0.667 ± 0.031
NTGNGYDEKTME,protein stability index,0.7622 ± 0.0014
SLPPDPPSSYSP,protein stability index,0.632 ± 0.044
GIYAWFSGWRKD,protein stability index,0.72 ± 0.015
LKGVVRFISGQD,protein stability index,0.71735 ± 0.00052
SPTALPPPPVPP,protein stability index,0.662 ± 0.041
LLFISPPPRCLL,protein stability index,0.75 ± 0.036
AVDSGSLERIRM,protein stability index,0.69037 ± 0.00042
FSSSMFPPPLFV,protein stability index,0.662 ± 0.0056
APYSGSAMVIPG,protein stability index,0.713 ± 0.028
TKNTQNNGKDKK,protein stability index,0.734 ± 0.059
